Legend:
[1] = molecular target: LbCas12a (cryo-EM, assembled with crRNA) (UniProt A0A5S8WF58 1-1228); assay: cryo-EM structure
LbCas12a = LbCas12a (UniProt A0A5S8WF58 1-1228); assay: thermal shift

Binder | binding result [1] | binding result (LbCas12a)
UAAUUUCUACUAAGUGUAGAUGGGGUUUGAGGUCCAUUACA (structured_RNA) [12a-crRNA] | binds | –
GCGACTCGGTTCTTGCCTAAG (XNA, all 20 linkages phosphorothioate) [PS DNA1] | – | binds
